Assay: soluble on expression in E. coli; label from the status in PepcDB or PDB records

| Sequence | soluble on expression in E. coli |
| --- | --- |
| MGSDKIHHHHHHMNNSIITDDEVREFYLNCSSQTIIESLLSLHESLRLYSQNHEILLNRMFKKLDETNADSNISHIFMPVVSKDFSGIKILVNNNNKNFQGVINVIEPETGKLIGCFEAKQITAIRTALASCIGLYKQLSCSHDKLFRFENGTCYLTCFGTGLQAFWHIYIAIKLIMSGIVGESLKLVEINILYHNNMMSLDRLKSLKNLFGSNIKIELNQYQINDISSEGNGAVSNSDIIFGCLPTLEPNLFLRQLLNSKASVEQKHTYISLIGSYKPVMHECDKELIDKFKSDNESACILVDSREHTLLESGELIDSNIAPHNLIEIGELDTLKNTVLNLNEKGCKRTITLCKIVGLAVMDVALAKEFLSLRTKNTENKE | not soluble |
| MGHHHHHHSHMGSLPSRRKSLPSPSLSSSVQGQGPVTMEAERSKATAVALGSFPAGGPAELSLRLGEPLTIVSEDGDWWTVLSEVSGREYNIPSVHVAKVSHGWLYEGLSREKAEELLLLPGNPGGAFLIRESQTRRGSYSLSVRLSRPASWDRIRHYRIHCLDNGWLYISPRLTFPSLQALVDHYSELADDICCLLKEPCVLQRAGPLPGKDIPLPVTVQRTPLNWKELDSSLLFSEAATGEESLLSEGLRESLSFYISLNDEAVSLDDA | not soluble |
| MQMDGSKHMGTGAADAPFYLAQGDECDIFTAAYDNNLPVLLKGPTGCGKTRFVAHMAAKLGRPLYTVACHDDLAAADLIGRYLLKGGETVWVDGPLTRAVREGAICYLDEVVEARKDVTVVLHPLTDDRRILPIDRTGEELEAMPGFMLVASYNPGYQNILKTLKPSTRQRFISLEFDFPAPELEARVVSQESGLPLERCKPLIRLAGKLRGLKGQDLEEGVSTRLVVYAATLIAQGMPTERAILAAMVEPLTDDEDIKRGLLDLTTAVFGLEHHHHHH | not soluble |
| MKMSTKGRYGLRAMLDIAVNSKGDIVSVKSIAERQNISESYLEQVFSILRKAAIVKSIKGAQGGYVLADDPSNITVGKILRTLEGNLNVVDIDDRDSEVSKEEKCINEFVWNKINKSIDKVVDNITLGDLLREYQKLEDNSSVMYYI | soluble |
| LGEALNIYTPHRIVAFDNSNIQGTNPVSAMIVFIDGKPYKKEYRKYKIKTVTGPDDYGSMREVVRRRYTRVLRENLPLPDLIIIDGGKGQINAARDVIENELGLDIPIAGLAKDEKHRTSNLLIGDPLEVAYLERNSQEFYLLQRIQDEVHRFAI | not soluble |
| MSLAPRLKLRDITFFERPVQFARPFRFGAITINATTQLFVRVEIEVEGRGSAVGASAELLVPKWFDKRPEFSPAQTVDGLRRSLEIARGLYLARTGFLTAFDLHAACIGAQIATCAKKNIPALAAAYGLAEIDKAILDALLRGVETGFFDGMAGNVAGIDARLSPDLKDAEIAAFLSSRKPLPRVAIRHTVDLDDTVEGKGGVADAHENAGASYFKLKLRGDPAADAARLARIGKELDTLGRSYKVTLDANEQYADLAALQALMDRLDHDSDLRPIASRLLYVEQPMPRDITRQSPLGSLAARGFIIDEADDSYDAFPAARALGYHGISSKSCKGLYKSIVSATRAAKWSGGGEKFFVTGEDLTCQAGLAVQQDLALGAFLGVTHAERNGHHYVDGFGDTPAAEAAAFAAAHPDLYADAGQGIRLSIHDGDLLTGSLHAAGFATSVHPDWSALRPLEQPTSLQEQLAEGHHHHHH | soluble |
| MTPFTVDILIPIWNRPVETRNCLVTLMETTPSARLILIDNGSDRETERLLEEFSEILGERALFLKTSANQGFVRAVNRSLAQVEAPYAVVMQNTTLVTRGWLEPMVELADSRPDAGIIVPRLELEDGQGRRPKAAPPAGPVTEVSHGSFAASMVRRELVERQGGFDEELDGGPWCLRDYSRRAFRNGFLTLALDGAVVTYAEEVPLGSVARREETVRRSAETCRARWGREDAFCIYFPKDAEPEAVHGKLDVILRGARMGQCFTLILHPGLHKSLMETGHAPLHSNIALAPLPRFFATGEIRKIIGKLASVRGDTVTVAGVDGLSIPGVEGARSFSWLADEIRRRHESLYRPESP | soluble |
| MSLHLALLMRGGDPHCILDFGAGNGELCKLIALQFCYEPTPSLMAEAKENLADLPQISFCSDLEKISDGSVELIFCLEVFEHLPEKETKDALGQFDRLLTDNGNAVIGVPVEIGIPALYKGIFRMSRRFNTFDASIKNVLLAALSFPPKDRPVSEITPGFAFHHEHMGFDYRKLQALLHAQFGLQQVTTSPFSIFGPWLNPEVNFLIQKANPAVNADAAR | not soluble |
| MGSDKIHHHHHHMLFPDLANKIVREVRRLIKENIIIINIQGVIIASTDIERIGQFHEGALRCAKQKKTVIITKEDERRLQGVKAGMNLPLLFHDEVIGVIGITGEPENISQYGEILRKMTELLIHENYFLEQLELEHRSYEAFVFDWLQNTDWSPSFLDRAKTLGIDLYKKKQLILFSIDRNDTMLQRKVWQHVRNLLTKEHLFIRWGNDRFILFTATNSKEQTYQFLKRLKQDCETLFSVPLYIGIGQSVTPSNMNLSYEQALQALSVSLETKNIVFNEDLRLEMCLQDISAETREQFLKRTIENLLSSPELMHTLRLFIDYNQSYKQTAEQLHIHINTLHYRLKKIEEYTGLDPKQFKDLNILYFSLLLLDNHTKKNDKTD | not soluble |
| MRLSEAWAERKKNLSCQRGGHGAIITSITSFSEDFMTTMPAAEPVDAAERRAISPVVVYPNGTLEAPDLARLVQAKNGMEKIDEVIIPPRGGRTFTVPKGHFFRIVSIEGPQVGDLNLWNAHDLNERFFSGKTRALHATHVSVGNRLWSNLPSLRPMATITHDTLSWYGFDEDGGGVHDVIGTRCDPYTNKLLSGGDYHHCCHSNLTNALASARGLSFREAEPHVHDVLNVFMCTGFTRDTHQYFMKASPVRPGDYLELFAEIDLIGALSACPGGDCSATHSSDMAACYPLKVEIFRPDMAVLVGWPWPDRNAYRPVELEHHHHHH | not soluble |
| SSAESASQIPKGQVDLLDFIDWSGVECLNQSSSHSLPNALKQGYREDEGLNLESDADEQLLIYIPFNQVIKLHSFAIKGPEEEGPKTVKFFSNKEHMCFSNVNDFPPSDTAELTEENLKGKPVVLKYVKFQNVRSLTIFIEANQSGSEVTKVQKIALYGST | soluble |
| MRSDKVGSIKDLPSLPAGVKFDPSDKEILMHLEAKVSSDKRKLHPLIDEFIPTLEGENGICYTHPEKLPGVSKDGQVRHFFHRPSKAYTTGTRKRRKVSTDEEGHETRWHKTGKTRPVLSQSGETGFKKILVLYTNYGRQKKPEKTNWVMHQYHLGSSEDEKDGEPVLSKVFYQTQPRQCGSMEPKPKNLVNLNRFSYENIQAGFGYEHGGKSEETTQVIRELVVREGDGSCSFLSFTCDASKGKESFMKNQ | soluble |
| MSSDHVFKYVIIGDRGVGKSNLLLRFIGKPFDSIHPSTLGIEFGFRNLEIDRKKVKLHVWDTCGQERFRSLVGSYYRHAIGALLVYDITSRESFYHLEHWLTDLQRLGDPDIVIVLIGNKSDLEADREVRKEEGEAFAREFGLIFMEISAKTNEYVEEAFVNSAHEIYRKLNFGIIKEICVKKKKKKMNIIIRSISGKEKACC | not soluble |
| MSERPDLVDPLPEDEPLPGENIPDTPEGDDPLDPDTQNEVEDPRR | not soluble |
| AVPSPPPASPRSQYNFIADVVEKTAPAVVYIEILDRHPFLGREVPISNGSGFVVAADGLIVTNAHVVADRRRVRVRLLSGDTYEAVVTAVDPVADIATLRIQTKEPLPTLPLGRSADVRQGEFVVAMGSPFALQNTITSGIVSSAQRPARDLGLPQTNVEYIQTDAAIDFGNAGGPLVNLDGEVIGVNTMKVTAGISFAIPSDRLREFLHRGEKKNSSSGISGSQRRYIGVMMLTLSPSILAELQLREPSFPDVQHGVLIHKVILGSPAHRAGLRPGDVILAIGEQMVQNAEDVYEAVRTQSQLAVQIRRGRETLTLYVTPEVTE | soluble |
| MLPRGALVLNPFSEKAVSPEDRDMVLRRGIAALDCSWKKVKKSSVIFQTARNHRSLPFLVAANPTNYGKPCILSTAEAVAATLYIVGLKDIASDIMSYFKWGPHFLDLNRELLEAYSRAENSLEVVEIQKKFIGGLEHHHHHH | not soluble |
| MWSEYSLEVVDAVARNGSFSAAAQELHRVPSAVSYTVRQLEEWLAVPLFERRHRDVELTPAGVWFLQEGRSVIKKMQITRQQCQQIANGWRGQLSIAVDDIVKPARMRQMIVDFYRHFPDVELIVFQEVFNGVWDALADGRVELAIGATRSIPVGGRYAFRDMGMLSWDCVVASDHPLAKMEGPLSDDVLRNWPSLVREDTSRSLPKRTTWLLDNQKRVVVPDWESSATCLSAGLCVGMVPSHFARPWIDRGEWTALALENPFPDAACCLTWQQNDASPALNWMLDYLGDSDTLNREWLRAPERSAPARCLNDDNRQTGHPLPSGAQPDGGALR | not soluble |
| MKKIGIIGAGGIARAHATALSTIKNAELVGVYDINQQNAESFVKTFGGKSFENVDELIDASEGLIVASPNFCHKEHALQALGKHKHVLCEKPMAISLEEASIMKDTAERLSVRASMGFNYRYLSYVNILKSLIINNELGNILSIKVHFKKNSALRRKKFTWRDDANSKKTSGSLGDLGIHLIDMVWYLFESDFITESVRAKMNTNVKTKEDKQVLVDDYAEIYGQLRNKVFVNIITSKCSVPEDCGFSIEVVGHKKEFKYHTGNPHVYKLIDGLNVVDCPVPQSLLNDPPNEFYGWADSFRSELINWIASTQNDWVEIPSFSDGFRSQEVLEMFFEKDSNSQPMSVSAVNLEHHHHHH | not soluble |
| SFQRALPRQPVPSAQETVRKYLESVRPVLGDDAFDRATALANDFLRLHAPRLQLYLQLKSWCTSNYVSDWWEEFVYLRSRGSLINSTYYMMDFLYVTPTPLQAARAGNAVHTLLLYRHLLNRQEISPTLLMGMRPLCSAQYERMFNTTRIPGVEKDHLRHLQDSRHVAVFHRGRFFRVGTHSPNGLLSPRALEQQFQDILDDPSPACPLEEHLAALTAAPRSMWAQVRESVKTHAATALEAVEGAAFFVSLDSEPAGLTREDPAASLDAYAHALLAGRGHDRWFDKSFTLIVFSNGKLGLSVEHSWADCPVSGHLWEFTLATECFQLGYATDGHCKGHPDPTLPQPQRLQWDLPEQIQPSISLALRGAKTLSGNIDCHVFPFSHFGKSFIKCCHVSSDSFIQLVLQLAHFRDRGQFCLTYESAMTRLFLEGRTETVRSCTREACQFVRAMDNKETDQHCLALFRVAVDKHQALLKAAMSGQGIDRHLFALYIMSRLLHMQSPFLTQVQSQQWLLSTSQVPVQQTHLIDVHNYPDYVSSGGGFGPAHDHGYGISYIFMGENAITFHISSKKSSTETDSHRLGQHIENALLDVASLFRVGQHFKRQFRGENSDYRYNFLSCKTVDPNTPTSSTNL | soluble |
| MGSDKIHHHHHHMFNSERLCIARERRGLTQRALAEAAGLTSKTISNYEKAGIFDAIASDSMERISAVLEYPIEFFLDRDVPSLTPEAVSFRAMTKLSAQKRDSALGAGKLAQELSAWIDGQFKLPKPNVPDSSFDGYSEPERAARTVREAWGIGELSISNIVHLLEANGIRVFSLAENCVEVDAFSFWMDEKPFVLLNTMKTPERSRFDAAHELGHLVLHKHSCNNGRQAEQDADRFASAFLMPERSILASVPRMPRLEQLILLKKNWKVSLAALVRRTFDVGLSTEWHYRQLSIELNRRGYRTGEPQGMPEREKSLILEKVFSALRTQGIKRTEILGQLRFPADEVSALTFNNRFFMEAITGDGPQSYIERKQPPQLSLVK | not soluble |
| MGSDKIHHHHHHMKIALGPISYCWEKDKVYTFYEKAAQSQVHSVYLGETVCSRRREVKLADYLAIARQLNAAGKEVILSTMALIEAQSEIGELKRCVDNGEFIIEANDMAAVHYASEAKLPFICGPSINNYNRASLDILHKLGMVRFVMPYELSRDWLTKVIETQPEFDIEVMGHGYMPLAHSARCFTAKHFGLRKDNCDTLCKTHPKGMLAQTQENQPLLRLNGIQTQSAAYVDLISEIPNMKALGVSYFRVSPTALSSIELADELCITLTQQQVPQSKHSSESCNGYWFGEAGFNQVSP | not soluble |
